Test results taken from US20190194322A1 (published 2019).
Read-outs that look alike come from different tables or passages of the source.

Assays:
[1] = biological target: T1, Recombinant human VSIG3 Fc Chimera; assay: SPR (Biacore, single-cycle kinetics)
T1 chain: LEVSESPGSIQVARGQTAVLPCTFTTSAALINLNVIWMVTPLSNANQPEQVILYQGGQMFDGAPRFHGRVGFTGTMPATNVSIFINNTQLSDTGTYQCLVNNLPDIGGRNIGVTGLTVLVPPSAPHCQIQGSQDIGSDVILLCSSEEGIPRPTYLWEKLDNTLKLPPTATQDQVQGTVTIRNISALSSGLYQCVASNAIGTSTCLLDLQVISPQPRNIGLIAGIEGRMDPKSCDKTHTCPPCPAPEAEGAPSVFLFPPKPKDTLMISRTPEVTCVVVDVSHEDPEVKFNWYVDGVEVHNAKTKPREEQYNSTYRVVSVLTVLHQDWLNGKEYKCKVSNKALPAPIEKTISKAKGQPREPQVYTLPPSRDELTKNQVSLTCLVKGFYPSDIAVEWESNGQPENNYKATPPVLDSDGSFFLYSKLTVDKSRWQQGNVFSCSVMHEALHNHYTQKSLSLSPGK

[2] = biological target: T1, Recombinant human VSIG3 Fc Chimera; assay: SPR (Biacore, single-cycle kinetics)
[3] = biological target: T2, VSIG3 His-fusion (human, UniProt Q5DX21 23-241, biotinylated (in the co-immunoprecipitation of FIG. 2)); assay: SPR (Biacore), antibody captured on protein A/G/L, single-cycle kinetics
T2 chain: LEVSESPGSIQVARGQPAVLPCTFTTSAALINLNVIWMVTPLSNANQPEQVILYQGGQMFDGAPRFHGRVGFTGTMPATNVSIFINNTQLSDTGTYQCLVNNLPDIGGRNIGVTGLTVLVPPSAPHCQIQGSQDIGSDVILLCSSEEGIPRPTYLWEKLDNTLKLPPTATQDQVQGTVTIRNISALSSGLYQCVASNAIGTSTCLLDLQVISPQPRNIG

[4] = biological target: T1, Recombinant human VSIG3 Fc Chimera; assay: SPR (Biacore), VSIG3-Fc immobilized, antibody as analyte, single-cycle kinetics
[5] = biological target: T1, Recombinant human VSIG3 Fc Chimera; assay: SPR (Biacore, single-cycle kinetics)
[6] = biological target: T2, VSIG3 His-fusion; assay: SPR (Biacore), antibody captured on protein A/G/L, single-cycle kinetics
[7] = biological target: T1, Recombinant human VSIG3 Fc Chimera; assay: SPR (Biacore, single-cycle kinetics)

B1: mouse anti-human VSIG3 monoclonal antibody from clone #973422 (antibody, V domains shown)
VH: EVKLVESGGGLVQPGGSLKLSCAASGFTFSSYSMSWVRQTPEKRLEWVAYISNGGGSTYYPDTVKGRFTISRDNAKNTLYLQMSSLKSEDTAMYYCARHGDGYYPWFAYWGQGTLVTVSA
VL: QIVLSQSPAILSASPGEKVTMTCRASSSVSYIHWYQQKPGSSPKPWIYATSNLASGVPARFSGSGSGTSYSLTISRVEAEDAATYYCQQWSSNPFTFASGTKLEIKR
In the case of B1, the Kd [1] is reported as 1.5 nM.

B2: mouse anti-human VSIG3 monoclonal antibody from clone #774226 (antibody, V domains shown)
VH: DVQLQESGPGLVKPSQSLSLICTVTGYSITSDYAWNWIRQFPGNKLEWMGYISYSGYTTYNPSLKSRISITRDTSKNQFFLQLNSVTTEDTATYYCAISGGSWFAYWGQGTLVTVSA
VL: DIQMTQSPASLSASVGETVNITCRTSENINSYLAWYQQKQGKSPQLLVYNAKTLAEGVPSRFSGSGSGTQFSLKINSLQPEDFGSYYCQHHYGTPPTFGGGTKLEIKR
B2 was tested, and the Kd [2] was 65 nM and the Kd [3] was 42 nM.

B3: mouse anti-human VSIG3 monoclonal antibody from clone #774221 (antibody, V domains shown)
VH: DVQLQESGPGLVKPSQSLSLTCTVTGYSITSDYAWNWIRQFPGNKLEWMGYISYSGYAIYNPSLKSRISITRDTSKNHFFLQLNSVTTEDTATYYCARSGGSWFAYWGQGTLVTVSA
VL: DIQMTQSPASLSASVGETVTITCRASENINSYLAWYQQKQGKSPQLLVYNAKTLAEGVPSRFSGSGSGTQFSLKINSLQPEDFGSYYCQHHYGTPPTFGGGTKLEIKR
B3 showed a Kd [2] of 21 nM and a Kd [3] of 25 nM.

B4: mouse anti-human VSIG3 monoclonal antibody from clone #973428 (antibody, V domains shown)
VH: EVQLVESGGDLVKPGGSLKLSCAASGFTFNSYGMSWVRQTPDKRLEWVAIISSGGSYTYYPDSVKGRFTISRDNAKNTLYLQMSSLKSEDTAMYYCARLSYYYGSSPYAMDYWGQGTSVTISS
VL: DIVLTQSPASLAVSLGQRATISCRASKSVSTSGYSYMHWYQQKPGQSPKLLIYLASNLESGVPARCSGSGSGTDFTLNIHPVEEEDAATYYCQHSRELPYTFGGGTKLEIKR
B4 showed a Kd [4] of 2.2 nM.

B5: mouse anti-human VSIG3 monoclonal antibody from clone #774213 (antibody, V domains shown)
VH: DVQLVESGGGLVQPGGSRKLSCAASGFTFSSFGMHWVRQAPEKGLEWVAYISSGSTTIYYADTVKGRFTISRDNPKNTLFLQMTSLRSEDTAMYYCTRGSYYRYDLYYAMDYWGQGTSVTVSS
VL: DIQMTQSPSSLSASLGGKVTITCKASQDIHKYVAWYQHKPGKGPRLLIHYTSTLQPGIPSRFSGSGSGSDYSFSISNLEPADIASYYCLQYDNLLFTFGGGTKLEIKR
B5 showed a Kd [5] of 9.2 nM and a Kd [6] of 19 nM.

B6: mouse anti-human VSIG3 monoclonal antibody from clone #973401 (antibody, V domains shown)
VH: QVQLQQSAAELARPGASVKMSCKASGYTFATYTIHWVKQRPGQGLEWIGYINPSSGYTEYNQKFKDKTTLTADKSSSTAYMQLSSLTSEDSAVYYCARREVYGSGSMDYWGQGTSVTVSS
VL: QIVLTQSPALMSASPGEKVTMTCSASSSVSFMYWYHQKPRSSPKPWIYLTSNLASGVPARFSGSGSGTSYSLTISSMEAEDAATYYCQQWSSNPLTFGAGTKLELKR
B6 showed a Kd [7] of 2.2 nM.
